Results on 6 molecules are retold here after PMC10030117 (eLife, 2023).

The target in experiment [1] is T1, SARS-2 spike (2P-stabilized ectodomain with foldon) (SARS-CoV-2 Wuhan-Hu-1, UniProt P0DTC2, K986 substituted with proline | V987 substituted with proline). In words: far-Western, overlay or dot blot. As to conditions: both partners purified.
The target in experiment [2] is T1, SARS-2 spike (2P-stabilized ectodomain …). Put plainly: ELISA.
For experiment [3], the target named is T2, SARS-2 HexaPro S2 (SARS-CoV-2 Wuhan-Hu-1, HexaPro, proline substitution at position 817 | proline substitution at position 892 | …). In words: cryo-EM structure. The note with it: both partners purified.
Experiment [4] deals with T2, SARS-2 HexaPro S2. Put plainly: BLI + SPR. The note with it: both partners purified.
Experiment [5] addresses SARS-2 4P-DS spike (4P with an additional stabilizing disulfide) (SARS-CoV-2 Wuhan-Hu-1, UniProt P0DTC2, disulfide bond between amino acids 965 and 1003 (965) | disulfide bond between …, disulfide bond between amino acids 965 and 1003; Alexa Fluor 647 label in the yeast display experiment). Put plainly: SPR. The note with it: both partners purified.
The target of experiment [6] is Authentic wild-type SARS-2 spike, full-length unstabilized, on the cell surface (Severe acute respiratory syndrome …, UniProt P0DTC2). Put plainly: flow cytometry on cells. As to conditions: one partner purified.
The target of a further experiment is SARS-2 HexaPro spike (SARS-CoV-2 Wuhan-Hu-1, HexaPro; T4 …, proline substitution at position 817 | proline substitution at position 892 | …). Put plainly: BLI. As to conditions: both partners purified.

Positions count from the first letter of the chain named.

B1: Antibody 3E11, full-length (mouse variable region-human IgG1 constant region chimera) (antibody, V domains shown)
VH: EVQLQQSGTVLARPGASVKMSCKASGYSFTNYWVHWVKQRPGQGLEWIGAIYPGNGDTTYNQKFKDKAKLTAVTSTSSAYMDLSSLTSEDSAVYYCTRRANYGSRYDYWGQGTTLTVSS
VL: DIVMTQSTSSLSASLGDRVTISCRASQGINNYLNWYQQKPDGTVKLLIYHTSRLHSGVPSRFSGSGSGTDYSLTISNLEQEDIATYFCQQGDTLPYTFGGGTKLEIK
notes: IgG1
As to B1, in experiment [1], the binding result is listed as “binds”.

B2: 3E11 scFv displayed on M13 phage (scFv, V domains shown)
VH: B1 VH
VL: B1 VL
notes: VL-linker-VH order
For the molecule B2, the binding result in experiment [2] (one partner purified) is “binds”.

B3: 3A3 Fab (Fab, V domains shown)
VH: QVQLQQSGAELLKPGASVKLSCTASGFNIKDTYIHWLKQRPEQGLEWIGRIGPAIGNTIYAPKFQGKATITTDTSSNTAYLQLSSLTSEDTAVYYCARYYGSSYYYFDYWGQGTTLTVSS
VL: DIVMTQSAPSVPVTPGESVSISCRSSKSLLHSNGNTYLYWFLQRPGQSPQLLIYRMSNLASGVPDRFSGSGSGTAFTLRISRVEAEDVGVYYCMQYLEYPLTFGAGTKLELK
Consider B3, for which, in the experiment with SARS-2 HexaPro S2 [3], the “stoichiometry N” value worked out at 1 Fab per S2 protomer. Also, the Kd in the experiment with SARS-2 HexaPro S2 [4] is approximately 3 nM.

B4: RAY53 Fab (Fab, V domains shown)
VH: QVQLVQSGAVVLKPGASVKLSCKASGFNIKNTYIHWLKQAPGQRLEWIGRIGPAIGNTIYAPKFQGKATITTDTSASTAYLELSSLRSEDTAVYYCARYYGSSYYYLDYWGQGTTVTVSS
VL: B3 VL with A8P, P9L, S18P, R44K, Y54A, N58T, R79K, L111I
The molecule B4 returned a Kd in experiment [5] of 1300 ± 200 nM.

B5: Antibody 3A3, full-length (mouse variable region-human IgG1 constant region chimera) (antibody, V domains shown)
VH: B3 VH
VL: B3 VL
In the case of B5, in experiment [2] (both partners purified), the “fold worse ELISA EC50 (stressed against fresh)” value was approximately 150 fold. The binding result in experiment [6] is listed as “no binding (tested: ~1–300 nM)”. In the experiment with SARS-2 HexaPro spike, this molecule yielded a kon of 800000 ± 100000 M⁻¹ s⁻¹.

B6: Antibody RAY53, full-length human IgG1 (antibody, V domains shown)
VH: B4 VH
VL: B3 VL with A8P, P9L, S18P, R44K, Y54A, N58T, R79K, L111I
B6: in experiment [2] (both partners purified), the binding result is “binds”. Further, the results for the Kd in experiment [5] and in experiment [6] were 100 ± 16 nM and 100 ± 20 nM, respectively.
